Measured values published in patent US20240392002A1 (EXELIXIS, published 2024).

Key:
ROR1 on tumor cell lines = ROR1 on tumor cell lines (human, UniProt Q01973 30-937); assay: cell-based or functional assay
[1] = target: T1, extracellular domain of human ROR2 (human, UniProt Q01974 34-403); assay: BLI, IgG1 on biosensor, soluble ROR ectodomain
T1 construct: bought protein; biotinylated in the bivalent assay format; also called Acro Cat. No. RO2-H52E5
Source text: (§1) To measure binding affinity in ROR binder discovery campaigns, the VL and VH domains identified in the phage screen described above were formatted into a bivalent monospecific native human full-length IgG1 architecture and immobilized to a biosensor on an Octet (Pall ForteBio) biolayer interferometer. Soluble ROR antigens, including the extracellular domains of ROR1 (Acro Cat. No. RO1-H522γ) and ROR2 (Acro Cat. No. R02-H52E5), as well as the individual ROR1 Frizzled (Acro Cat. No. RO1-H5222), Ig-like (Acro Cat. No. RO1-H5221), and Kringle (Acro Cat. No. RO1-H5223) domains, were then added to the system and binding measured.
(§2) ROR binding candidates, formatted in the bivalent monospecific native human full-length IgG1 architecture, were further characterized for binding to ROR1 and/or ROR2. […] ROR binding candidates were also characterized for their binding to specific ROR1 domains.

[2] = target: T2, extracellular domain of human ROR1 (human, UniProt Q01973 30-406); assay: BLI (Octet), IgG1, two-fold serial dilution 200-12.5 nM
T2 construct: bought protein; biotinylated in the bivalent assay format; also called Acro Cat. No. RO1-H522y
T2 sequence (Q01973 30-406 limits assumed): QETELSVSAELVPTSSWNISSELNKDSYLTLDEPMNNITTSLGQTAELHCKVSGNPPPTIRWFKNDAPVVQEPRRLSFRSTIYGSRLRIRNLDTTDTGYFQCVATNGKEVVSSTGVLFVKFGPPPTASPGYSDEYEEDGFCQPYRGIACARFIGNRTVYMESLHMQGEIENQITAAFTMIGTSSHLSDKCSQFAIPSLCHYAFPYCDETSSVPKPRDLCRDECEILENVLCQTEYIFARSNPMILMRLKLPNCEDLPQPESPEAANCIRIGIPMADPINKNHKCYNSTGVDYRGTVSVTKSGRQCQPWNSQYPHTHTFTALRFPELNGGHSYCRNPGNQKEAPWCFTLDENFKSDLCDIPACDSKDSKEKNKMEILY
Source text: as §1
The VH and VL sequences above were formatted into a bivalent monospecific native human full-length IgG1 architecture.

ROR1 Frizzled domain = target: T3, ROR1 Frizzled domain (human, UniProt Q01973 165-299); assay: BLI, IgG1 on biosensor, soluble ROR1 domain
T3 construct: also called FZ domain; Acro Cat. No. RO1-H5222
T3 sequence (Q01973 165-299): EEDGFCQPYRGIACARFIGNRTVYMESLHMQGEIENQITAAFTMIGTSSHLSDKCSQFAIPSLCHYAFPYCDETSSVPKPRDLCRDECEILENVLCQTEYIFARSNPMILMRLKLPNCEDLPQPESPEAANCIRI
Source text: as §1, §2

[3] = target: T2, extracellular domain of human ROR1; assay: BLI, IgG1 on biosensor, soluble ROR ectodomain
Source text: as §1, §2

ROR1 Ig-like domain = target: T4, ROR1 Ig-like domain (human, UniProt Q01973 42-147); assay: BLI, IgG1 on biosensor, soluble ROR1 domain
T4 construct: also called Acro Cat. No. RO1-H5221
T4 sequence (Q01973 42-147): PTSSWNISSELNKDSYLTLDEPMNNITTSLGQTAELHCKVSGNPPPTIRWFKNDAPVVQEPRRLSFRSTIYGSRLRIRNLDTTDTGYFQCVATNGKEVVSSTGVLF
Source text: as §1, §2

[4] = target: human CD3 delta and epsilon heterodimer (human, UniProt P07766 23-126; P04234 22-105); assay: BLI (Octet), two-fold serial dilution 200-12.5 nM of the construct
human CD3 delta and epsilon heterodimer, sequence (P07766 23-126, stated change not applied, chain 1 of 2): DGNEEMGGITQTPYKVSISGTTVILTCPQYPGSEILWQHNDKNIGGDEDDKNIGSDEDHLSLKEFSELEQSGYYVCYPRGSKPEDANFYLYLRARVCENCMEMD
human CD3 delta and epsilon heterodimer, sequence (P04234 22-105, stated change not applied, chain 2 of 2): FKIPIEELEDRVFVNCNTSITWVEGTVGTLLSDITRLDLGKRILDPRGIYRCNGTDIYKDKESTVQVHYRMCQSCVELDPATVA

T1 sequence (Q01974 34-403 limits assumed): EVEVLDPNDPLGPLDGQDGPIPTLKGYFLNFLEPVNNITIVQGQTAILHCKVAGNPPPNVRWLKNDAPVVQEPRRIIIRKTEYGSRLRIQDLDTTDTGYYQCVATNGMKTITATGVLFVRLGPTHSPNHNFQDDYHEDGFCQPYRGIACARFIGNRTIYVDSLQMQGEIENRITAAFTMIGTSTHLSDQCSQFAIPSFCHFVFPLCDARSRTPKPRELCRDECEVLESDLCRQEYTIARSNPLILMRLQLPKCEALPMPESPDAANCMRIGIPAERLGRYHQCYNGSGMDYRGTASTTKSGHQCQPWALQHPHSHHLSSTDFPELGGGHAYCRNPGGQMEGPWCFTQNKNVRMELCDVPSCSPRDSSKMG
ROR1 on tumor cell lines, sequence (Q01973 30-937 limits assumed): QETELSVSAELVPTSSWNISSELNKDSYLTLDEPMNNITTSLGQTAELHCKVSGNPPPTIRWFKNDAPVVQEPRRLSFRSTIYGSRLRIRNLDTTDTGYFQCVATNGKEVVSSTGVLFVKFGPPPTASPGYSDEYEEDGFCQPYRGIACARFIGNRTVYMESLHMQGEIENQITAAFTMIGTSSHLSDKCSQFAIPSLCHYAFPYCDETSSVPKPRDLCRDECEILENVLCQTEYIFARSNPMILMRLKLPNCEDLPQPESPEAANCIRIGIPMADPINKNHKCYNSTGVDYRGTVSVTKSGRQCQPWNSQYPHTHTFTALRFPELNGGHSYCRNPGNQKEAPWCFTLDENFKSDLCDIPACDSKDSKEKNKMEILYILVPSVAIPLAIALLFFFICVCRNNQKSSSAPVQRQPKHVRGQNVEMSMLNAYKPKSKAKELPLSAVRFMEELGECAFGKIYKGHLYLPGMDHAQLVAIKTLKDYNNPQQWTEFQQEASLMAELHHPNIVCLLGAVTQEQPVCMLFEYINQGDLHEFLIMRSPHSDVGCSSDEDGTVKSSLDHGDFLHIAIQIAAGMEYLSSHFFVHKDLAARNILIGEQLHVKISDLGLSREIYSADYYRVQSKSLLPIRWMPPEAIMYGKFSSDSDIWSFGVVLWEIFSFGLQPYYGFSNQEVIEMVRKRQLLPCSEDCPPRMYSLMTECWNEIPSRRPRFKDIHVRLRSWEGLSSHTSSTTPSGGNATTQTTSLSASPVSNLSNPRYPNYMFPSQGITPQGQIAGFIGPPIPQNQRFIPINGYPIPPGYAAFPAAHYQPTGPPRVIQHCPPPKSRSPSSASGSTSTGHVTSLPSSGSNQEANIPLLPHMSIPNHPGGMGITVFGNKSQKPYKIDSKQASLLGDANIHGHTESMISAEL

B1: I2A-10 BC1 1×2 B-body (I2A-10 x SP34-89) (bispecific antibody)
chain 1: not shown
chain 2: EVQLVESGGGLVQPGGSLRLSCAASGFTFSSYFIHWVRQAPGKGLEWVAGIYPSDGYTSYADSVKGRFTISADTSKNTAYLQMNSLRAEDTAVYYCARYYSGMDYWGQGTLVTVSSASPREPQVYTDPPSRDELTKNQVSLTCLVKGFYPSDIAVEWESNGQPENNYKTTPPVLDSDGSFFLYSKLTVDKSRWQQGNVFSCSVMHEALHNHYTQKSLSLSGEC
chain 3: DIQMTQSPSSLSASVGDRVTITCRASQSVSSAVAWYQQKPGKAPKLLIYSASSLYSGVPSRFSGSRSGTDFTLTISSLQPEDFATYYCQQYYYYPGTFGQGTKVEIKRTPREPQVYTLPPSRDELTKNQVSLKCLVKGFYPSDIAVEWESNGQPENNYKTTPPVLDSDGSFFLYSKLTVDKSRWQQGNVFSCSVMHEALHNHYTQKSLSLSKSCTASSGGSSSGQAVVTQEPSLTVSPGGTVTLTCRSSTGAVTTSNYANWVQQKPGQAPRGLIGGTNKRAPWTPARFSGSLLGGKAALTITGAQAEDEADYYCALWYSNLWVFGGGTKLTVLGRTVAAPSVFIFPPSDEQLKSGTASVVCLLNNFYPREAKVQWKVDNALQSGNSQESVTEQDSKDSTYSLSSTLTLSKADYEKHKVYACEVTHQGLSSPVTKSFNRGECDKTHTCPPCPAPEAAGGPSVFLFPPKPKDTLMISRTPEVTCVVVDVSHEDPEVKFNWYVDGVEVHNAKTKPREEQYNSTYRVVSVLTVLHQDWLNGKEYKCKVSNKALKAPIEKTISKAKGQPREPQVCTLPPSREEMTKNQVSLSCAVKGFYPSDIAVEWESNGQPENNYKTTPPVLDSDGSFFLVSKLTVDKSRWQQGNVFSCSVMHEALHNHYTQKSLSLSPGK
chain 4: EVQLVESGGGLVQPGGSLRLSCAASGFTFNTYAMNWVRQAPGKGLEWVARIRSKYNNYATYYADSVKGRFSISRDDSKNTAYLQMNSLRAEDTAVYYCVRHGNFGNSYVSWFAYWGQGTLVTVSSASTKGPSVFPLAPSSKSTSGGTAALGCLVKDYFPEPVTVSWNSGALTSGVHTFPAVLQSSGLYSLSSVVTVPSSSLGTQTYICNVNHKPSNTKVDKKVEPPKSC
EC50, CD8+ T cell mediated killing of MDA-MB-231 (LDH) (ROR1 on tumor cell lines): 13 pM

B2: I2A-10 IgG1 (antibody, V domains shown)
VH: EVQLVESGGGLVQPGGSLRLSCAASGFTFSSYFIHWVRQAPGKGLEWVAGIYPSDGYTSYADSVKGRFTISADTSKNTAYLQMNSLRAEDTAVYYCARYYVSGMDYWGQGTLVTVSS
VL: DIQMTQSPSSLSASVGDRVTITCRASQSVSSAVAWYQQKPGKAPKLLIYSASSLYSGVPSRFSGSRSGTDFTLTISSLQPEDFATYYCQQYYYYPGTFGQGTKVEIKR
notes: bivalent monospecific native human full-length IgG1; the Domain F / Domain A entries end with AS / RT of the junction to the constant domain; also called clone I2-A10
binding result [1]: binds | Kd [2]: 820 pM | koff [2]: 0.00038 s⁻¹ | kon [2]: 538000 M⁻¹ s⁻¹

B3: I2C-23 IgG1 (antibody, V domains shown)
VH: EVQLVESGGGLVQPGGSLRLSCAASGFTFSSYEIHWVRQAPGKGLEWVASIYPFSGDTYYADSVKGRFTISADTSKNTAYLQMNSLRAEDTAVYYCARPGRAIYYAVMDYWGQGTLVTVSS
VL: DIQMTQSPSSLSASVGDRVTITCRASQSVSSAVAWYQQKPGKAPKLLIYSASSLYSGVPSRFSGSRSGTDFTLTISSLQPEDFATYYCQQAGSHLFTFGQGTKVEIK
notes: human IgG1
binding result (ROR1 Frizzled domain): binds | binding result [3]: binds | binding result [1]: binds

B4: I2A-11 IgG1 (antibody, V domains shown)
VH: EVQLVESGGGLVQPGGSLRLSCAASGFTFSSYVIHWVRQAPGKGLEWVAAIYPYTSSTQYADSVKGRFTISADTSKNTAYLQMNSLRAEDTAVYYCARSYGTGGFDYWGQGTLVTVSS
VL: DIQMTQSPSSLSASVGDRVTITCRASQSVSSAVAWYQQKPGKAPKLLIYSASSLYSGVPSRFSGSRSGTDFTLTISSLQPEDFATYYCQQWYSYPLTFGQGTKVEIK
notes: human IgG1
binding result (ROR1 Frizzled domain): binds | binding result [3]: binds | binding result [1]: binds

B5: I2A-19 IgG1 (antibody, V domains shown)
VH: EVQLVESGGGLVQPGGSLRLSCAASGFTFSSYFIHWVRQAPGKGLEWVAWIYPSGSYTYYADSVKGRFTISADTSKNTAYLQMNSLRAEDTAVYYCAREMDRVGYSGMDYWGQGTLVTVSS
VL: DIQMTQSPSSLSASVGDRVTITCRASQSVSSAVAWYQQKPGKAPKLLIYSASSLYSGVPSRFSGSRSGTDFTLTISSLQPEDFATYYCQQYRTPLGTFGQGTKVEIK
notes: human IgG1
binding result (ROR1 Frizzled domain): binds | binding result [3]: binds | binding result [1]: binds

B6: I2C-6 IgG1 (antibody, V domains shown)
VH: EVQLVESGGGLVQPGGSLRLSCAASGFTFSWYFIHWVRQAPGKGLEWVARIYSTGGYTEYADSVKGRFTISADTSKNTAYLQMNSLRAEDTAVYYCARSAFFGALDYWGQGTLVTVSS
VL: DIQMTQSPSSLSASVGDRVTITCRASQSVSSAVAWYQQKPGKAPKLLIYSASSLYSGVPSRFSGSRSGTDFTLTISSLQPEDFATYYCQQYPSGPETFGQGTKVEIK
notes: human IgG1
binding result (ROR1 Frizzled domain): binds | binding result [3]: binds | binding result [1]: binds

B7: I2A-32 IgG1 (antibody, V domains shown)
VH: EVQLVESGGGLVQPGGSLRLSCAASGFTFQSYVIHWVRQAPGKGLEWVAAIYPYSSSTIYADSVKGRFTISADTSKNTAYLQMNSLRAEDTAVYYCARSWSVYLGMDYWGQGTLVTVSS
VL: DIQMTQSPSSLSASVGDRVTITCRASQSVSSAVAWYQQKPGKAPKLLIYSASSLYSGVPSRFSGSRSGTDFTLTISSLQPEDFATYYCQQSYDSPRTFGQGTKVEIK
notes: human IgG1
binding result (ROR1 Frizzled domain): binds | binding result [3]: binds | binding result [1]: no binding

B8: I2A-34 IgG1 (antibody, V domains shown)
VH: EVQLVESGGGLVQPGGSLRLSCAASGFTFSWYVIHWVRQAPGKGLEWVAYIAPYTGSTYYADSVKGRFTISADTSKNTAYLQMNSLRAEDTAVYYCARAFFGIRLGLDYWGQGTLVTVSS
VL: DIQMTQSPSSLSASVGDRVTITCRASQSVSSAVAWYQQKPGKAPKLLIYSASSLYSGVPSRFSGSRSGTDFTLTISSLQPEDFATYYCQQAISSPYTFGQGTKVEIK
notes: human IgG1
binding result (ROR1 Frizzled domain): binds | binding result [3]: binds | binding result [1]: binds

B9: I2A-25 IgG1 (antibody, V domains shown)
VH: EVQLVESGGGLVQPGGSLRLSCAASGFTFYGYTIHWVRQAPGKGLEWVAAIYPYTDSTRYADSVKGRFTISADTSKNTAYLQMNSLRAEDTAVYYCARDYRRALDYWGQGTLVTVSS
VL: DIQMTQSPSSLSASVGDRVTITCRASQSVSSAVAWYQQKPGKAPKLLIYSASSLYSGVPSRFSGSRSGTDFTLTISSLQPEDFATYYCQQYTDFPWTFGQGTKVEIK
notes: human IgG1
binding result (ROR1 Frizzled domain): binds | binding result [3]: binds | binding result [1]: no binding

B10: I2C-9 IgG1 (antibody, V domains shown)
VH: EVQLVESGGGLVQPGGSLRLSCAASGFTFTDYDIHWVRQAPGKGLEWVARIWPHGSYTFYADSVKGRFTISADTSKNTAYLQMNSLRAEDTAVYYCARSLTHSYGFDYWGQGTLVTVSS
VL: DIQMTQSPSSLSASVGDRVTITCRASQSVSSAVAWYQQKPGKAPKLLIYSASSLYSGVPSRFSGSRSGTDFTLTISSLQPEDFATYYCQQYYTWLITFGQGTKVEIK
notes: human IgG1
binding result (ROR1 Ig-like domain): binds | binding result [3]: binds | binding result [1]: binds

B11: non-mutagenized SP34-89 monovalent B-Body (bispecific antibody, V domains shown)
VH: EVQLVESGGGLVQPGGSLRLSCAASGFTFNTYAMNWVRQAPGKGLEWVARIRSKYNNYATYYADSVKGRFSISRDDSKNTAYLQMNSLRAEDTAVYYCVRHGNFGNSYVSWFAYWGQGTLVTV
VL: QAVVTQEPSLTVSPGGTVTLTCRSSTGAVTTSNYANWVQQKPGQAPRGLIGGTNKRAPWTPARFSGSLLGGKAALTITGAQAEDEADYYCALWYSNLWVFGGGTKLTVL
notes: cloned into one arm of a 1×1 BC1 B-Body
Kd [4]: 23000 pM | koff [4]: 0.0071 s⁻¹ | kon [4]: 300000 M⁻¹ s⁻¹
